Measured values: paper PMC10511561, “Synergism between CMG helicase and leading strand DNA polymerase at replication fork” (Nature Communications, 2023)

B1: Mcm2 (subunit of CMG) (natural protein, yeast)
chain: MSDNRRRRREEDDSDSENELPPSSPQQHFRGGMNPVSSPIGSPDMINPEGDDNEVDDVPDIDEVEEQMNEVDLMDDNMYEDYAADHNRDRYDPDQVDDREQQELSLSERRRIDAQLNERDRLLRNVAYIDDEDEEQEGAAQLDEMGLPVQRRRRRRQYEDLENSDDDLLSDMDIDPLREELTLESLSNVKANSYSEWITQPNVSRTIARELKSFLLEYTDETGRSVYGARIRTLGEMNSESLEVNYRHLAESKAILALFLAKCPEEMLKIFDLVAMEATELHYPDYARIHSEIHVRISDFPTIYSLRELRESNLSSLVRVTGVVTRRTGVFPQLKYVKFNCLKCGSILGPFFQDSNEEIRISFCTNCKSKGPFRVNGEKTVYRNYQRVTLQEAPGTVPPGRLPRHREVILLADLVDVSKPGEEVEVTGIYKNNYDGNLNAKNGFPVFATIIEANSIKRREGNTANEGEEGLDVFSWTEEEEREFRKISRDRGIIDKIISSMAPSIYGHRDIKTAVACSLFGGVPKNVNGKHSIRGDINVLLLGDPGTAKSQILKYVEKTAHRAVFATGQGASAVGLTASVRKDPITKEWTLEGGALVLADKGVCLIDEFDKMNDQDRTSIHEAMEQQSISISKAGIVTTLQARCSIIAAANPNGGRYNSTLPLAQNVSLTEPILSRFDILCVVRDLVDEEADERLATFVVDSHVRSHPENDEDREGEELKNNGESAIEQGEDEINEQLNARQRRLQRQRKKEEEISPIPQELLMKYIHYARTKIYPKLHQMDMDKVSRVYADLRRESISTGSFPITVRHLESILRIAESFAKMRLSEFVSSYDLDRAIKVVVDSFVDAQKVSVRRQLRRSFAIYTLGH
notes: Mcm2, yeast; Chain of m1 as it stands in the replisome structure; source: yeast strain yJCZ2, purified as part of CMG (anti-FLAG M2 resin, Mono Q, Superose 6)
B2: Mcm4 (subunit of CMG) (natural protein, yeast)
chain: MSQQSSSPTKEDNNSSSPVVPNPDSVPPQLSSPALFYSSSSSQGDIYGRNNSQNLSQGEGNIRAAIGSSPLNFPSSSQRQNSDVFQSQGRQGRIRSSASASGRSRYHSDLRSDRALPTSSSSLGRNGQNRVHMRRNDIHTSDLSSPRRIVDFDTRSGVNTLDTSSSSAPPSEASEPLRIIWGTNVSIQECTTNFRNFLMSFKYKFRKILDEREEFINNTTDEELYYIKQLNEMRELGTSNLNLDARNLLAYKQTEDLYHQLLNYPQEVISIMDQTIKDCMVSLIVDNNLDYDLDEIETKFYKVRPYNVGSCKGMRELNPNDIDKLINLKGLVLRSTPVIPDMKVAFFKCNVCDHTMAVEIDRGVIQEPARCERIDCNEPNSMSLIHNRCSFADKQVIKLQETPDFVPDGQTPHSISLCVYDELVDSCRAGDRIEVTGTFRSIPIRANSRQRVLKSLYKTYVDVVHVKKVSDKRLDVDTSTIEQELMQNKVDHNEVEEVRQITDQDLAKIREVAAREDLYSLLARSIAPSIYELEDVKKGILLQLFGGTNKTFTKGGRYRGDINILLCGDPSTSKSQILQYVHKITPRGVYTSGKGSSAVGLTAYITRDVDTKQLVLESGALVLSDGGVCCIDEFDKMSDSTRSVLHEVMEQQTISIAKAGIITTLNARSSILASANPIGSRYNPNLPVTENIDLPPPLLSRFDLVYLVLDKVDEKNDRELAKHLTNLYLEDKPEHISQDDVLPVEFLTMYISYAKEHIHPIITEAAKTELVRAYVGMRKMGDDSRSDEKRITATTRQLESMIRLAEAHAKMKLKNVVELEDVQEAVRLIRSAIKDYATDPKTGKIDMNLVQTGKSVIQRKLQEDLSREIMNVLKDQASDSMSFNELIKQINEHSQDRVESSDIQEALSRLQQEDKVIVLGEGVRRSVRLNNRV
notes: Mcm4, yeast; Chain of m1 as it stands in the replisome structure; source: yeast strain yJCZ2, purified as part of CMG (anti-FLAG M2 resin, Mono Q, Superose 6)
B3: Cdc45 (subunit of CMG) (natural protein, yeast)
chain: MYYGISQFSEAYNKILRNSSSHSSCQLVIFVSCLNIDALCATKMLSLLFKKQLVQSQIVPIFGYSELRRHYSQLDDNINSLLLVGFGGVIDLEAFLEIDPQEYVIDTDEKSGEQSFRRDIYVLDAHRPWNLDNIFGSQIIQCFDDGTVDDTLGEQKEAYYKLLELDEESGDDELSGDENDNNGGDDEATDADEVTDEDEEDEDETISNKRGNSSIGPNDLSKRKQRKKQIHEYEGVLEEYYSQGTTVVNSISAQIYSLLSAIGETNLSNLWLNILGTTSLDIAYAQVYNRLYPLLQDEVKRLTPSSRNSVKTPDTLTLNIQPDYYLFLLRHSSLYDSFYYSNYVNAKLSLWNENGKKRLHKMFARMGIPLSTAQETWLYMDHSIKRELGIIFDKNLDRYGLQDIIRDGFVRTLGYRGSISASEFVEALTALLEVGNSTDKDSVKINNDNNDDTDGEEEEDNSAQKLTNLRKRWVSNFWLSWDALDDRKVELLNRGIQLAQDLQRAIFNTGVAILEKKLIKHLRIYRLCVLQDGPDLDLYRNPLTLLRLGNWLIECCAESEDKQLLPMVLASIDENTDTYLVAGLTPRYPRGLDTIHTKKPILNNFSMAFQQITAETDAKVRIDNFESSIIEIRREDLSPFLEKLTLSGLL
notes: Cdc45, yeast; Chain of m1 as it stands in the replisome structure; source: yeast strain yJCZ2, purified as part of CMG (anti-FLAG M2 resin, Mono Q, Superose 6)
B4: Mcm5 (subunit of CMG) (natural protein, yeast)
chain: MSFDRPEIYSAPVLQGESPNDDDNTEIIKSFKNFILEFRLDSQFIYRDQLRNNILVKNYSLTVNMEHLIGYNEDIYKKLSDEPSDIIPLFETAITQVAKRISILSRAQSANNNDKDPENTSMDTDSLLLNSLPTFQLILNSNANQIPLRDLDSEHVSKIVRLSGIIISTSVLSSRATYLSIMCRNCRHTTSITINNFNSITGNTVSLPRSCLSTIESESSMANESNIGDESTKKNCGPDPYIIIHESSKFIDQQFLKLQEIPELVPVGEMPRNLTMTCDRYLTNKVIPGTRVTIVGIYSIYNSKNGAGSGRSGGGNGGSGVAIRTPYIKILGIQSDVETSSIWNSVTMFTEEEEEEFLQLSRNPKLYEILTNSIAPSIFGNEDIKKAIVCLLMGGSKKILPDGMRLRGDINVLLLGDPGTAKSQLLKFVEKVSPIAVYTSGKGSSAAGLTASVQRDPMTREFYLEGGAMVLADGGVVCIDEFDKMRDEDRVAIHEAMEQQTISIAKAGITTVLNSRTSVLAAANPIYGRYDDLKSPGDNIDFQTTILSRFDMIFIVKDDHNEERDISIANHVINIHTGNANAMQNQQEENGSEISIEKMKRYITYCRLKCAPRLSPQAAEKLSSNFVTIRKQLLINELESTERSSIPITIRQLEAIIRITESLAKLELSPIAQERHVDEAIRLFQASTMDAASQDPIGGLNQASGTSLSEIRRFEQELKRRLPIGWSTSYQTLRREFVDTHRFSQLALDKALYALEKHETIQLRHQGQNIYRSGV
notes: Mcm5, yeast; Chain of m1 as it stands in the replisome structure; also called Mcm5-CTD; Mcm5-WHD; source: yeast strain yJCZ2, purified as part of CMG (anti-FLAG M2 resin, Mono Q, Superose 6)
B5: Mcm6 (subunit of CMG) (natural protein, yeast)
chain: MSSPFPADTPSSNRPSNSSPPPSSIGAGFGSSSGLDSQIGSRLHFPSSSQPHVSNSQTGPFVNDSTQFSSQRLQTDGSATNDMEGNEPARSFKSRALNHVKKVDDVTGEKVREAFEQFLEDFSVQSTDTGEVEKVYRAQIEFMKIYDLNTIYIDYQHLSMRENGALAMAISEQYYRFLPFLQKGLRRVVRKYAPELLNTSDSLKRSEGDEGQADEDEQQDDDMNGSSLPRDSGSSAAPGNGTSAMATRSITTSTSPEQTERVFQISFFNLPTVHRIRDIRSEKIGSLLSISGTVTRTSEVRPELYKASFTCDMCRAIVDNVEQSFKYTEPTFCPNPSCENRAFWTLNVTRSRFLDWQKVRIQENANEIPTGSMPRTLDVILRGDSVERAKPGDRCKFTGVEIVVPDVTQLGLPGVKPSSTLDTRGISKTTEGLNSGVTGLRSLGVRDLTYKISFLACHVISIGSNIGASSPDANSNNRETELQMAANLQANNVYQDNERDQEVFLNSLSSDEINELKEMVKDEHIYDKLVRSIAPAVFGHEAVKKGILLQMLGGVHKSTVEGIKLRGDINICVVGDPSTSKSQFLKYVVGFAPRSVYTSGKASSAAGLTAAVVRDEEGGDYTIEAGALMLADNGICCIDEFDKMDISDQVAIHEAMEQQTISIAKAGIHATLNARTSILAAANPVGGRYNRKLSLRGNLNMTAPIMSRFDLFFVILDDCNEKIDTELASHIVDLHMKRDEAIEPPFSAEQLRRYIKYARTFKPILTKEARSYLVEKYKELRKDDAQGFSRSSYRITVRQLESMIRLSEAIARANCVDEITPSFIAEAYDLLRQSIIRVDVDDVEMDEEFDNIESQSHAASGNNDDNDDGTGSGVITSEPPADIEEGQSEATARPGTSEKKKTTVTYDKYVSMMNMIVRKIAEVDREGAEELTAVDIVDWYLLQKENDLGSLAEYWEERRLAFKVIKRLVKDRILMEIHGTRHNLRDLENEENENNKTVYVIHPNCEVLDQLEPQDSS
notes: Mcm6, yeast; Chain of m1 as it stands in the replisome structure; source: yeast strain yJCZ2, purified as part of CMG (anti-FLAG M2 resin, Mono Q, Superose 6)

What was measured:
[1] = molecular target: T1, Pol2 (subunit of Polε in the replisome) (yeast, UniProt P21951 1-2222); assay: cryo-EM structure; replisome assembled at room temperature from 0.7 uM CMG, forked DNA and ATPγS, then 1.5 molar excess of Polε, Ctf4, Tof1-Csm3; 100 mM KCl, 25 mM HEPES pH 7.6, 4 mM MgCl2, 4 mM ATPγS; 10-30% glycerol gradient with glutaraldehyde fixation; States I-VI by 3D classification; conditions: both partners purified
T1 construct: Pol2, yeast, catalytic subunit of Polε; Chain of m2 as it stands in the replisome structure; the catalytic NTD is flexible and not resolved; also called Pol2-CTD; Pol2-ZF2; source: yeast strain yAJ2, purified as part of Polε (calmodulin resin, TEV elution, Mono Q, Superose 6); not shown: CBP, N-terminal, cleaved

Tof1-Csm3 = molecular target: T2, Tof1-Csm3 (yeast, UniProt P53840 1-1238; Q04659 1-317); assay: as above; conditions: both partners purified
T2 construct: Tof1, yeast; Csm3, yeast; Purified beforehand as one complex; also called Tof1 and Csm3; components of the fork protection complex (FPC); source: yeast strain yAE48, galactose-induced, purified (calmodulin resin, TEV elution, Mono Q, Superose 6); not shown: CBP, N-terminal, cleaved
T2 sequence (P53840 whole entry, chain 1 of 2): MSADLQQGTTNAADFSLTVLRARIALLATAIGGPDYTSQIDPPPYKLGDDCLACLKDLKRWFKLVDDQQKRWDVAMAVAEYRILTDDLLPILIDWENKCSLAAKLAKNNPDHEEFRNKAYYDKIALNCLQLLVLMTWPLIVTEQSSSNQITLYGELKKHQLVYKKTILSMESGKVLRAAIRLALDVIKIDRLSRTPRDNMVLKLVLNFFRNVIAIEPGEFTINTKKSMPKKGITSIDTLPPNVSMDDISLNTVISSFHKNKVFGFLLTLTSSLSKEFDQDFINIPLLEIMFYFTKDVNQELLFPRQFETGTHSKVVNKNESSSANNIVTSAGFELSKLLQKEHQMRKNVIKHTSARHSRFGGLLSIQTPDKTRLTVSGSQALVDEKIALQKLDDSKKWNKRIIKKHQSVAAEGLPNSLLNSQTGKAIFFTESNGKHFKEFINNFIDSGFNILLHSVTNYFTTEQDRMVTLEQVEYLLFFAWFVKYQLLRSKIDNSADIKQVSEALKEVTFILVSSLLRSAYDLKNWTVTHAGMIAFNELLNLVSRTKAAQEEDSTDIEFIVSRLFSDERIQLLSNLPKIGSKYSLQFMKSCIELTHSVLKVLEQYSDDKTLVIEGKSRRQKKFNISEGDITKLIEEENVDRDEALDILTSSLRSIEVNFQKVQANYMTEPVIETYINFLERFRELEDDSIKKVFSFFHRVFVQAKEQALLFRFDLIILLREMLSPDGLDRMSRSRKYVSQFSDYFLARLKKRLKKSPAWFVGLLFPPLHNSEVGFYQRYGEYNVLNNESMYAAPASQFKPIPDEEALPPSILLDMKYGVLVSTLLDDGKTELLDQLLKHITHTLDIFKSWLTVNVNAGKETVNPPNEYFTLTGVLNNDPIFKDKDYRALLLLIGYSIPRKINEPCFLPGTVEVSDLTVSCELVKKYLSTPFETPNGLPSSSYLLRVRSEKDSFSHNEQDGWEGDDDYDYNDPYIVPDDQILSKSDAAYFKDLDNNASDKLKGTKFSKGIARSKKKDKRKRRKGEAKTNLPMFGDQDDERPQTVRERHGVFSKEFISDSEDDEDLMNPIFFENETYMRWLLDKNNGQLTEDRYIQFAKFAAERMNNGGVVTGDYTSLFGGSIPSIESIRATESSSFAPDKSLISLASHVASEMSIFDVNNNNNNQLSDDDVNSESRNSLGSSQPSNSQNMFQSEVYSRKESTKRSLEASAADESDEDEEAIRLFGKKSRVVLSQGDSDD
T2 sequence (Q04659 whole entry, chain 2 of 2): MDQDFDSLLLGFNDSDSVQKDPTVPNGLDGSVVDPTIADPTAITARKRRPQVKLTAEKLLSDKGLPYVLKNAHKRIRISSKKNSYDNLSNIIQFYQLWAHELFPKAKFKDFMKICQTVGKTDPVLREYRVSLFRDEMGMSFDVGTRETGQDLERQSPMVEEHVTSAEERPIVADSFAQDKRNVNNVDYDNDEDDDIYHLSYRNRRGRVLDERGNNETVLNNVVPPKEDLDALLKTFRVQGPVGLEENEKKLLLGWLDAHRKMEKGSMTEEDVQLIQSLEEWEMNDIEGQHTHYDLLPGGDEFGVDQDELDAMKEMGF

T1 sequence (P21951 whole entry): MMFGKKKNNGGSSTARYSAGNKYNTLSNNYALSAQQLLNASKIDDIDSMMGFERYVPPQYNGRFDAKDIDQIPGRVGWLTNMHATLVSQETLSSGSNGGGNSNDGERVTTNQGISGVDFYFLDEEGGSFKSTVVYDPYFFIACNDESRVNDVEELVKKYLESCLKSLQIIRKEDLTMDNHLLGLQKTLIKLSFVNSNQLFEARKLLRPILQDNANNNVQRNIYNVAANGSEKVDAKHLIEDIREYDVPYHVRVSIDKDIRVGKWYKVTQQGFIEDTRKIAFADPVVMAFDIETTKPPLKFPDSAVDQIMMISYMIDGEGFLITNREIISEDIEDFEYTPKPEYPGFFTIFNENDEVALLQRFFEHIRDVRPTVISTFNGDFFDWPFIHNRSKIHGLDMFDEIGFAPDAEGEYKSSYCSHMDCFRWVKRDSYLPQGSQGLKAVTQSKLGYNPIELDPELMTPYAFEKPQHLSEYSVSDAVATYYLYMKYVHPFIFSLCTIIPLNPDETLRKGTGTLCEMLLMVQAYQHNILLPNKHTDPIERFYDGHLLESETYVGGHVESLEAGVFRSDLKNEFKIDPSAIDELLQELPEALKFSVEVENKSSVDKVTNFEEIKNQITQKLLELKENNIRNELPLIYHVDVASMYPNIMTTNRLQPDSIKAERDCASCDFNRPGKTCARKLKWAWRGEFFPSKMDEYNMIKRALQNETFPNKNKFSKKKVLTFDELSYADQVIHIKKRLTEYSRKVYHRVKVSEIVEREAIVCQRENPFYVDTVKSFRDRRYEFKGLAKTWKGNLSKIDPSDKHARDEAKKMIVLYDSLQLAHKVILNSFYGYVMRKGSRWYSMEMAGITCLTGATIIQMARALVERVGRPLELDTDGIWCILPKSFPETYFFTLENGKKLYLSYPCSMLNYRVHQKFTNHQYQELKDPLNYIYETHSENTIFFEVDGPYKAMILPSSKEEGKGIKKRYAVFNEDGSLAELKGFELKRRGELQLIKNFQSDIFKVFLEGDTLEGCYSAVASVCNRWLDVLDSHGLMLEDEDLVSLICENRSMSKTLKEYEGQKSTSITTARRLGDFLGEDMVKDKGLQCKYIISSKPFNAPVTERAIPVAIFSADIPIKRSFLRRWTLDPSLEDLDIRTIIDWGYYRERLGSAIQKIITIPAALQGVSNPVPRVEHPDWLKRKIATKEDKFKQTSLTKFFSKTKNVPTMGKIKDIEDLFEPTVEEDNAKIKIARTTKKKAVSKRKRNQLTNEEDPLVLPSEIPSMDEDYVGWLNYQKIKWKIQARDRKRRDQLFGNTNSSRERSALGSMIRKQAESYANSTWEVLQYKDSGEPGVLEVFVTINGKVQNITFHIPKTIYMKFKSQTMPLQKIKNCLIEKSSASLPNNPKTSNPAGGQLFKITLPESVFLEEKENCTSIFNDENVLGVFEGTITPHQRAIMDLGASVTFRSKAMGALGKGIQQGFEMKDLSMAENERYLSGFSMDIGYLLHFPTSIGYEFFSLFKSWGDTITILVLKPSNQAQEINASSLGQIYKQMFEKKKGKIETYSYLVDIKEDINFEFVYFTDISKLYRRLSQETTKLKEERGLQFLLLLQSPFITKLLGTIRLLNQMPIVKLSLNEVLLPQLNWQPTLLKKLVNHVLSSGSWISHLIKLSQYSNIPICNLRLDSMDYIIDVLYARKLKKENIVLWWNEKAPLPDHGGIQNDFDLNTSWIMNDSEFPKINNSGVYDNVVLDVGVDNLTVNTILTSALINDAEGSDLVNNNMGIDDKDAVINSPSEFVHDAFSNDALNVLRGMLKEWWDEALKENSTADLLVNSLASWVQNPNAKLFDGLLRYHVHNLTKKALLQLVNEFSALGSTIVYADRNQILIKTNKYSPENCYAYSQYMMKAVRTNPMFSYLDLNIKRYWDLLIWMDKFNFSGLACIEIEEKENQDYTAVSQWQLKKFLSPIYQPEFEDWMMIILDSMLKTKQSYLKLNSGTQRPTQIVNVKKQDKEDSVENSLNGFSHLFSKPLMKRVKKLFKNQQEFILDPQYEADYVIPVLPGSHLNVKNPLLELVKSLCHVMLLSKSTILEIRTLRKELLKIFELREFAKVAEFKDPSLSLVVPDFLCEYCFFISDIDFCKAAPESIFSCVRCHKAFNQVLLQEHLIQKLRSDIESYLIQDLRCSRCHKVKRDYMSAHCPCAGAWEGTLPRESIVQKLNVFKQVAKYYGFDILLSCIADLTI

Binder	binding result [1]	binding result (Tof1-Csm3)
B1	binds	
B2		binds
B3	binds	
B4	binds	
B5		binds
